Measurements reported in publication PMC4923194, “The Crystal Structure of the C-Terminal Domain of the Salmonella enterica PduO Protein: An Old Fold with a New Heme-Binding Mode” (Frontiers in Microbiology, 2016).

Key:
[1] = biological target: T1, PduO C-terminal domain (PduOC) (Salmonella enterica, UniProt A0A0F6B395); experiment: crystal structure ([…] Å) and ITC; UV/Vis titration; format: binding
T1 construct: C-terminal domain PduOC, 147 residues, His-tag-free; octamer with 4 hemes

[2] = biological target: PduOC-His18Ala (H18A) mutant (Salmonella enterica subsp. enterica serovar Typhimurium); experiment: SEC-MALS; Superdex 200 increase 10/300 GL in 100 mM Tris-HCl pH 8, 150 mM NaCl, with multi-angle static light scattering and refractive index detectors; wild type as PduOC:heme, H18A without heme
[3] = biological target: the molecule itself; experiment: SEC; gel filtration of the PduOC apoprotein (heme extracted); data not shown
[4] = biological target: the molecule itself; experiment: SEC-MALS; Superdex 200 increase 10/300 GL in 100 mM Tris-HCl pH 8, 150 mM NaCl, with multi-angle static light scattering and refractive index detectors; wild type as PduOC:heme, H18A without heme

## C=CC1=C(C)C2=Cc3c(C=C)c(C)c4[n]3[Fe][n]3c(c(C)c(CCC(=O)O)c3=CC3=NC(=C4)C(C)=C3CCC(=O)O)=CC1=N2 [heme B]
[1]
  Kd: 160 nM

## PduOC-His18Ala (H18A) mutant (domain or fragment)
[2]
  stoichiometry N: 2

B1: C-terminal domain of the Salmonella enterica PduO protein (PduOC) (domain or fragment)
chain: KETTPVALSFHDLHQLTRAAVERAQQLQVPVVVSIVDAHGTETVTWRMPDALLVSSELAPKKAWTAVAMKTATHELSDVVQPGAALYGLESHLQGKVVTFGGGYALWRDGILIGGLGISGGSVEQDMDIAQTAIAAINVGTHQ
notes: PduO, ATP:Cob(I)alamin adenosyltransferase of S. enterica subsp. enterica serovar Typhimurium; C-terminal domain (PduOC); the His-tag-free monomer has 147 residues; the N-terminal domain (PduON) has 197 residues; excess heme B added to the lysate for crystallography; Residues left by the pETM11 vector after TEV cleavage are probably counted in the 147 residues (surmise); also called PduOC:heme; …
[3]
  stoichiometry N: 2
[4]
  stoichiometry N: 8
